Data published in the supplement of paper PMC10567573.

B1: ZNF207 (parent)
chain: FQPQPVQPQQGYIPPMAQPGLPPV
B2: WDFY1 (parent)
chain: LLIPKEDGVITASEDRTIRVWLKR

Variants of: B1
Experiment: protein stability index of a GFP-peptide fusion (GPS, HEK-293T) (PSI 1-6); higher = more stable
Conditions: c terminus: a fixed tail appended
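Further: lentivirally expressed fusions sorted by FACS into six bins by GFP to DsRed ratio, PSI derived from sequencing read proportions per bin multiplied by bin number.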

Protein stability index, by site and new letter:
P23: M 2.9; N 2.69; L 3.04; T 2.89; Q 3.14; K 2.95; W 1.7; S 3.19; V 3.13; R 3.02; Y 2.42
V24: C 2.95; R 3.38; I 3.26; Y 2.4; G 3.1; E 3.75; S 2.93; Q 3.33; K 2.92; L 2.44; M 2.8; D 3.9; F 2.35; H 2.71; N 2.67; W 1.8

Variants of: B2
Experiment: as above
Conditions: c terminus: a fixed tail appended

Protein stability index of substitutions, site by site:
E6: V 1.42; Y 2.4; N 2.58; Q 3.73; S 2.06; D 2.82; R 1.63; W 1.66; I 1.98; T 1.77; L 3.18; C 2.67; M 2.65; G 2.56; H 2.67; K 2.18; P 2.43; F 2.25; A 2.59
L1: A 2.5; Y 2.55; C 2.35; V 2.56; M 3.12; Q 2.94; D 3.54; P 4.03; F 2.24; S 2.93; R 2.73; H 2.83; I 2.1; W 1.73; T 3.62; E 3.2; N 3.1; K 2.74
P4: G 1.74; V 2.67; H 1.75; M 1.88; A 2.13; L 1.79; T 1.89; N 2.19; D 2.82; I 1.52; Y 1.51; F 2.78; Q 1.5; W 2.35; C 2.28; S 2.54; R 2.46
I3: Q 2.66; G 2.97; L 2.76; R 2.71; M 1.95; Y 1.89; K 3.17; D 3.09; A 3.62; C 2.24; N 3.77; E 3.36; F 2.04; H 2.45; T 2.91; W 1.87
K5: L 1.36; D 2.41; Y 2.91; C 2.26; A 2.13; R 1.44; F 1.4; E 1.58; H 1.65; N 2.15; I 2.28; W 1.41; Q 1.57; T 1.62; G 3.24; S 1.2
D7: F 2.7; G 1.77; V 1.8; T 2.37; E 3.03; A 2.06; L 2.05; C 1.75; H 1.42; S 1.39; P 1.66; I 1.28; Y 1.3; N 1.58; K 1.56; Q 2.1; M 1.44; W 1.33
L2: H 1.68; G 2.37; Y 1.82; I 2.22; C 2.5; K 3.31; A 2.88; E 3.8; P 2.66; M 2.27; F 1.25; D 3.47; S 2.78; N 2.77; T 2.08; R 1.93; Q 3.1; W 1.76; V 2.69
G8: W 1.94; H 1.78; M 1.14; V 1.58; S 1.95; I 1.41; L 1.03; E 1.31; T 2.55; C 2.23; N 2.07; R 2.3; F 1.48; K 1.99; P 2.41; D 2.27; Q 1.58
